# Reference: patent publication US9394371B2, “Antibody-mediated disruption of quorum sensing in bacteria” (The Scripps Research Institute, priority 2007, dated 2016)
# Where two headings read alike, the source gives them in different places.
# How the values were obtained:
# AIP-2 = assay: Competition ELISA (free native AIP against hapten-BSA coated plates); type: binding, S. aureus; conditions: AP4-BSA coated plates
# AIP-1 = assay: as above; type: binding, S. aureus; conditions: AP4-BSA coated plates
# AIP-3 = assay: as above; type: binding, S. aureus
# Experimental: (§1) The optimal concentrations of the AP4-BSA conjugate as well as of each mAb were determined. 96 well ELISA plates were coated with the appropriate amount of AP4-BSA conjugate respectively. The plates were blocked with 4% skim milk, washed and mAbs were added at the predetermined optimal concentration. The plates were washed and free antigen, i.e. the native AIPs 1-4, was added to the wells in a concentration series starting at 100 μM. The plate was incubated for 1 hour at 37° C., thoroughly washed, and goat anti-mouse-horseradish peroxidase (HRP) conjugate (Pierce, Rockford, Ill.) was added. After an incubation period of 1 hour at RT, the plate was thoroughly washed again and the HRP substrate (TMB substrate kit; Pierce) was added, the reaction was allowed to develop for 15 minute and stopped by the addition of 2 M H2SO4. The absorbance at 450 nm was read and the values plotted using GraFit (Erithacus Software Ltd). The free antigen concentration at which the absorbance value is 50% of the maximum absorbance was considered the Kd of the antibody for its antigen.
# as §1, with “For the competition ELISA analysis, the optimal concentrations” for “The optimal concentrations”, “of the AP1-BSA, AP3-BSA, or AP4-BSA conjugate,” for “of the AP4-BSA conjugate”, “or AP4-BSA conjugate, as well” for “the AP4-BSA conjugate as well”, “amount of AP1-BSA, AP3-BSA, or AP4-BSA conjugate” for “amount of AP4-BSA conjugate”, “blocked with 4 v % skim milk,” for “blocked with 4% skim milk,”, “for 15 minutes and stopped” for “for 15 minute and stopped”
# AIP-4 = assay: as above; type: binding, S. aureus
# Experimental: as §1
# as §1, with “For the competition ELISA analysis, the optimal concentrations” for “The optimal concentrations”, “of the AP1-BSA, AP3-BSA, or AP4-BSA conjugate,” for “of the AP4-BSA conjugate”, “or AP4-BSA conjugate, as well” for “the AP4-BSA conjugate as well”, “amount of AP1-BSA, AP3-BSA, or AP4-BSA conjugate” for “amount of AP4-BSA conjugate”, “blocked with 4 v % skim milk,” for “blocked with 4% skim milk,”, “for 15 minutes and stopped” for “for 15 minute and stopped”
# [1] = system: S. aureus RN4850, NRS168 and Wood 46; type: cell-based; conditions: 24-hour growth period; FIG. 4B
# [2] = system: agr QS system in S. aureus RN4850; type: cell-based
# S. aureus RN4850 [3] = type: cell-based
# S. aureus RN4850 [4] = assay: Static biofilm analysis (crystal violet); type: cell-based; conditions: antibody 0.2 mg/mL, FIG. 4C
# Jurkat cells = assay: S. aureus supernatant-induced PARP cleavage (apoptosis), Western blot; type: cell-based, Human; conditions: 4 hours, FIG. 5
# S. aureus RN4850 [5] = type: cell-based; conditions: FIG. 3B
# S. aureus Wood 46 = type: cell-based
# S. aureus RN4850 [6] = assay: Dermal infection model in mice (abscess formation); conditions: for S. aureus-induced skin injury: flank injection
# Experimental: Additional control animals received 200 μL intradermal injections containing Cytodex beads or beads plus antibody. After injections were made the mice were monitored at least three times each day over a period of 4-7 days. At the conclusion of the monitoring period the mice were euthanized and tissues harvested for bacteriologic and histologic analysis.
# SKH1 euthymic hairless mice, 6-8 weeks old were obtained from Charles River Laboratories and housed in the biocontainment vivarium for one week before use in experiments. […] Cytodex 1 beads (GE Healthcare 17-0448-01) were suspended (1 gram in 50 mL) in Dulbecco's Phosphate Buffered Saline without calcium/magnesium (Gibco) overnight at 20° C. The supernatant was decanted and the beads washed three times by suspension in DPBS and 1 G sedimentation followed by autoclaving (121° C., 15 psi, 15 minutes). Staphylococcus aureus RN4850 (AIP4) was grown from frozen stock (BHI+20% glycerol) on brain heart infusion agar plates 35° C. overnight. Three representative colonies were combined to inoculate 2 mL CYGP broth, and after overnight incubation without shaking, 0.25 mL of the culture was used to inoculate 5 mL of CYGP followed by incubation at 35° C., 200 rpm for 3 hours. The culture was centrifuged 1,300×G at 4° C. for 20 minutes, the supernatant poured off, and the bacterial pellet was suspended in 1 mL DPBS without calcium/magnesium. The SKH1 received 200 μL intradermal flank injections containing S. aureus (1×10^7 or 1×10^8 bacteria), 4 μL packed volume Cytodex beads, DPBS, anti-AIP4 antibody or control IgG (0.6 or 0.06 mg). Additional control animals received 200 μL intradermal injections containing Cytodex beads or beads plus antibody. After injections were made the mice were monitored at least three times each day over a period of 4-7 days. At the conclusion of the monitoring period the mice were euthanized and tissues harvested for bacteriologic and histologic analysis.
# Subcutaneous injections of bacterial suspension or vehicle control were made in the flank of SKH1 hairless mice followed by close monitoring over seven days.
# S. aureus RN4850 [7] = assay: Passive immunization against lethal S. aureus challenge; type: in vivo, SKH1 mice; conditions: antibody i.p. 2 hours before 3×10^8 S. aureus RN4850 i.p.; FIG. 8
# Experimental: FIG. 8 illustrate survival data obtained from passive immunization of mice with AP4-24H11 against S. aureus infection. […] The numbers in parenthesis show number of survivors/number per group. The log rank statistic, p=0.001; n=6 for each group.
# S. aureus RN4850 were stored at −80° C. in 20% glycerol/BHI medium, thawed and grown on BHI-agar plates overnight, and three separate colonies sampled to inoculate 2 mL CYGP medium. The inoculum culture was maintained 1 hour at 35° C. without shaking, followed by shaking at 200 rpm for 3 hours. Aliquots of the freshly grown inoculum culture were transferred to 5 mL CYGP medium in 50 mL conical polypropylene tubes (1/20 dilution) followed by shaking at 200 rpm, 35° C. for 3 hours. The bacteria were pelleted by centrifugation at 3,000 rpm (1300×G) for 10 minutes, 4° C. […]
# Mab AP4-24H11, isotype-matched control IgG (1 mg each) or DPBS was administered i.p. in DPBS to SKH1 mice (6-9 weeks old; 6 animals per treatment group) followed two hours later by 0.5 mL DPBS^− i.p. containing 3×10^8 S. aureus. The mice were monitored several times on the day of injection and twice each day on subsequent days, observing ambulation, alertness, response to handling and skin temperature measured by infrared thermometry (Raytek MiniTemp MT4) using a 1 cm diameter infrasternal skin site. […]
# [8] = selected AP4 mAbs, average of at least two measurements, read-out: Binding constant, AIP-2
# [9] = AP4 Sups, competing hybridomas re-tested, average, read-out: AIP1 wt
# [10] = selected AP4 mAbs, average of at least two measurements, read-out: Binding constant, AIP-1
# [11] = selected AP4 mAbs, average of at least two measurements, read-out: Binding constant, AIP-3
# [12] = AP4 Sups, AP4-BSA coated plates, competing hybridomas re-tested, average, read-out: AIP4 wt
# [13] = selected AP4 mAbs, AP4-BSA coated plates, average of at least two measurements, read-out: Binding constant, AIP-4
molecule,measurement,setting,value
"AP4-29E10: murine monoclonal antibody raised against AP4 lactone hapten (antibody, V domains shown) VH: EVQLQQSGPELEKPGASVKISCKASGHSFTGYNMNWVKQSNDKSLEWIGNIAPYYGVTAYNQKFKGKATLTGDKSSSTAYMQLKSLASEDSAVYYCVLDTSGYASWGQGTLVTVSA VL: DIVMTQATASLTVSLGQRATISCRASKSVSTSGYSYMHWYQQKPGQPPKLLIYLASNLESGVPARFSGSGSGTDFTLNIHPVEEEDAATYYCQHSREVPYTFGGGTKLELK",Kd,"AIP-2; AP4 Sups, read-out: AIP2 wt",> 25000 nM
same,Kd,AIP-2; [8],> 25000 nM
same,Kd,AIP-1; [9],~3000 nM
same,Kd,AIP-1; [10],~3000 nM
same,Kd,"AIP-3; AP4 Sups, read-out: AIP3 wt",> 25000 nM
same,Kd,AIP-3; [11],> 25000 nM
same,Kd,AIP-4; [12],~24 nM
same,Kd,"AIP-4; AP4 Sups, tested 5 different times, read-out: AIP4 Kd, variability over 5 different tests",2 to 110 nM
same,Kd,AIP-4; [13],~24 nM
"AP4-24H11: murine anti-AIP-4 monoclonal antibody; VH SEQ ID NO: 20, VL SEQ ID NO: 148 (antibody, V domains shown, Murine) VH: EVKPQESGPGLVKPSQSLSLTCTVTGYSITSNYAWNWIRQFPGNKLEWMGFISSYGTTTYNPSLKSRFSITRDTSKNQFFLQLHSVTIEDTGTYFCTREGDYWGQGTTLTVSS VL: DIVMTQATLSLPVSLGDQASISCRSSQRLVPSNGNIYLHWFLQKPGQSPKLLIYKLSSRFSGVPDRFSGSGSGTDFTLKISRVESEDLGIYFCSQTTHVPYTFGGGTKLEIK",growth of S. aureus in presence of antibody,[1],no significant growth changes
same,eta mRNA fold-change,[2],−8.1±1 fold
same,hla mRNA fold-change,[2],−5.2±3.1 fold
same,rnaIII mRNA fold-change,[2],−77±48 fold
same,saeR mRNA fold-change,[2],+1.4±0.4 fold
same,sarA mRNA fold-change,[2],−2.1±0.6 fold
same,spa mRNA fold-change,[2],+5.7±3.6 fold
same,decrease of eta transcription,[2]; RN4850,≈ 10 fold
same,elevation of spa transcription,[2]; RN4850,3 to 5 fold
same,suppression of hla transcription,[2]; RN4850,3 to 5 fold
same,reduction of rnaIII transcriptional level,"[2]; RN4850, stationary growth phase",> 50 fold
same,change in saeR transcription,"[2]; RN4850, no significant changes",≤ 2 fold
same,change in sarA transcription,"[2]; RN4850, no significant changes",≤ 2 fold
same,exoprotein expression/secretion (SDS-PAGE),S. aureus RN4850 [3],affects the expression and/or secretion of S. aureus exoproteins
same,hemolysins secretion (α-hemolysin western analysis),S. aureus RN4850 [3],clear reduction in hemolysins secretion
same,protein A expression (Western blot),S. aureus RN4850 [3]; 20-24 hours,significantly increased
same,α-hemolysin expression (Western blot),S. aureus RN4850 [3]; 20-24 hours,reduce the α-hemolysin expression
same,Kd,"AIP-2; AP4 Sups, read-out: AIP2 wt",> 25000 nM
same,Kd,AIP-2; [8],> 25000 nM
same,static biofilm formation,S. aureus RN4850 [4],increased biofilm formation
same,Kd,AIP-1; [9],~5000 nM
same,Kd,AIP-1; [10],~5000 nM
same,PARP cleavage induced by RN4850 supernatant,Jurkat cells; supernatant (1%) of culture grown with antibody,prevented RN4850 supernatant (1%)-induced PARP cleavage
same,PARP cleavage induced by Wood 46 supernatant,Jurkat cells; supernatant of culture grown with antibody,partially inhibited the effect of Wood 46 supernatant
same,Kd,"AIP-3; AP4 Sups, read-out: AIP3 wt",> 25000 nM
same,Kd,AIP-3; [11],> 25000 nM
same,Kd,AIP-4; [12],~98 nM
same,Kd,AIP-4; [13],~90 nM
same,hemolytic activity of treated supernatant on blood agar plates,S. aureus RN4850 [5],no hemolytic activity was observed
same,α-hemolysin production (Western blot),S. aureus Wood 46,notable decrease in α-hemolysin production
same,"condition of mice injected with PBS/Cytodex containing antibody, no bacteria","S. aureus RN4850 [6]; 0.6 mg antibody, occasional local induration, FIG. 7D",remained normal
same,S. aureus-induced skin injury,S. aureus RN4850 [6]; 10^8 bacteria with 0.06 mg antibody,not protective
same,S. aureus-induced skin injury,"S. aureus RN4850 [6]; 10^8 bacteria with 0.6 mg antibody, 7 day observation",skin injury was abrogated
same,survivors/number per group through the 8-day observation period,S. aureus RN4850 [7],6/6
"AP4-4-20: anti-AIP4 human scFv from phage display, expressed in E. coli; probably AP4-20, SEQ ID NO: 53 (protein, listed as Homo sapiens) scFv: QVQLQQSGAGLLRPSETLSLTCGLYGGSFSGHYWNWIRQSPEKGLVWIGEITHSGTTNYNPSLKSRVITSVDTSKNQYSLKLSFVTPADTAVYYCARGDYYGYWYFDLWGRGTLVTVSSGGGGSGGGGSGGGGSQSVLTQPPSVPVAPGQKVTISCSGSSSNIGNNYVSWYQQLPGTAPKLLIYDTNKRPSGIPDRFAGSKSGTSATLGITGLQTGDEADYYCGTWDSSLSAGVFGGGTKLTVL",hemolysins secretion (α-hemolysin western analysis),S. aureus RN4850 [3],clear reduction in hemolysins secretion
